According to patent publication US20260242735A1 (UNIVERSIT T BASEL, published 2026):

What was measured:
Test in all cases: alanine scan, flow cytometry;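 further: HEK293-T cells transiently expressing single-residue alanine mutants of CD33 (alanine swapped to serine), antibody binding read by fluorescence in duplicate, background-subtracted, expressed relative to wild-type CD33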
human CD33 L78A = human CD33 L78A (human, UniProt P20138 18-364)
human CD33 A74S = human CD33 A74S (human, UniProt P20138 18-364)
human CD33 A74S, sequence (P20138 18-364 A74S limits assumed): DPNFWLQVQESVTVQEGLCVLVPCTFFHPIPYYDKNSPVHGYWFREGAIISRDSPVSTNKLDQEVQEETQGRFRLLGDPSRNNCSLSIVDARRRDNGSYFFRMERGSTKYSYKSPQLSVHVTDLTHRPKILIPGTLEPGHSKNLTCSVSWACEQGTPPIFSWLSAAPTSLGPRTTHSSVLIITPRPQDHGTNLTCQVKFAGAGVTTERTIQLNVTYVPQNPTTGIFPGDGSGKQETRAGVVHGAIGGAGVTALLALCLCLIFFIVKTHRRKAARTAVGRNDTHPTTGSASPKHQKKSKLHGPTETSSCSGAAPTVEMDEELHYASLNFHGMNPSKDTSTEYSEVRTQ

human CD33 R62A = human CD33 R62A (human, UniProt P20138 18-364)
human CD33 E81A = human CD33 E81A (human, UniProt P20138 18-364)
human CD33 R89A = human CD33 R89A (human, UniProt P20138 18-364)
human CD33 R89A, sequence (P20138 18-364 R89A limits assumed): as the sequence (P20138 18-364 A74S limits assumed) above, with S57A, R72A counted along it

human CD33 Q24A = human CD33 Q24A (human, UniProt P20138 18-364)
human CD33 V29A = human CD33 V29A (human, UniProt P20138 18-364)
human CD33 E84A = human CD33 E84A (human, UniProt P20138 18-364)
human CD33 I66A = human CD33 I66A (human, UniProt P20138 18-364)
human CD33 I66A, sequence (P20138 18-364 I66A limits assumed): as the sequence (P20138 18-364 A74S limits assumed) above, with I49A, S57A counted along it

human CD33 F43A = human CD33 F43A (human, UniProt P20138 18-364)
human CD33 F90A = human CD33 F90A (human, UniProt P20138 18-364)
human CD33 T42A = human CD33 T42A (human, UniProt P20138 18-364)
human CD33 L35A = human CD33 L35A (human, UniProt P20138 18-364)
human CD33 T30A = human CD33 T30A (human, UniProt P20138 18-364)
human CD33 G88A = human CD33 G88A (human, UniProt P20138 18-364)
human CD33 G88A, sequence (P20138 18-364 G88A limits assumed): as the sequence (P20138 18-364 A74S limits assumed) above, with S57A, G71A counted along it

human CD33 Q80A = human CD33 Q80A (human, UniProt P20138 18-364)
human CD33 Q80A, sequence (P20138 18-364 Q80A limits assumed): as the sequence (P20138 18-364 A74S limits assumed) above, with S57A, Q63A counted along it

human CD33 Y49A = human CD33 Y49A (human, UniProt P20138 18-364)
human CD33 Y49A, sequence (P20138 18-364 Y49A limits assumed): as the sequence (P20138 18-364 A74S limits assumed) above, with Y32A, S57A counted along it

human CD33 V82A = human CD33 V82A (human, UniProt P20138 18-364)
human CD33 V25A = human CD33 V25A (human, UniProt P20138 18-364)
human CD33 I67A = human CD33 I67A (human, UniProt P20138 18-364)
human CD33 D18A = human CD33 D18A (human, UniProt P20138 19-364)
human CD33 D18A, sequence (P20138 18-364 D18A limits assumed): as the sequence (P20138 18-364 A74S limits assumed) above, with D1A, S57A counted along it

human CD33 K52A = human CD33 K52A (human, UniProt P20138 18-364)
human CD33 V73A = human CD33 V73A (human, UniProt P20138 18-364)
human CD33 V39A = human CD33 V39A (human, UniProt P20138 18-364)
human CD33 S68A = human CD33 S68A (human, UniProt P20138 18-364)
human CD33 T75A = human CD33 T75A (human, UniProt P20138 18-364)
human CD33 L38A = human CD33 L38A (human, UniProt P20138 18-364)
human CD33 F44A = human CD33 F44A (human, UniProt P20138 18-364)
human CD33 F44A, sequence (P20138 18-364 F44A limits assumed): as the sequence (P20138 18-364 A74S limits assumed) above, with F27A, S57A counted along it

human CD33 F61A = human CD33 F61A (human, UniProt P20138 18-364)
human CD33 K77A = human CD33 K77A (human, UniProt P20138 18-364)
human CD33 G64A = human CD33 G64A (human, UniProt P20138 18-364)
human CD33 P46A = human CD33 P46A (human, UniProt P20138 18-364)
human CD33 I47A = human CD33 I47A (human, UniProt P20138 18-364)
human CD33 I47A, sequence (P20138 18-364 I47A limits assumed): as the sequence (P20138 18-364 A74S limits assumed) above, with I30A, S57A counted along it

human CD33 T86A = human CD33 T86A (human, UniProt P20138 18-364)
human CD33 T86A, sequence (P20138 18-364 T86A limits assumed): as the sequence (P20138 18-364 A74S limits assumed) above, with S57A, T69A counted along it

human CD33 V56A = human CD33 V56A (human, UniProt P20138 18-364)
human CD33 R69A = human CD33 R69A (human, UniProt P20138 18-364)
human CD33 R69A, sequence (P20138 18-364 R69A limits assumed): as the sequence (P20138 18-364 A74S limits assumed) above, with R52A, S57A counted along it

human CD33 V31A = human CD33 V31A (human, UniProt P20138 18-364)
human CD33 G34A = human CD33 G34A (human, UniProt P20138 18-364)
human CD33 G34A, sequence (P20138 18-364 G34A limits assumed): as the sequence (P20138 18-364 A74S limits assumed) above, with G17A, S57A counted along it

human CD33 N53A = human CD33 N53A (human, UniProt P20138 18-364)
human CD33 N53A, sequence (P20138 18-364 N53A limits assumed): as the sequence (P20138 18-364 A74S limits assumed) above, with N36A, S57A counted along it

human CD33 V37A = human CD33 V37A (human, UniProt P20138 18-364)
human CD33 N20A = human CD33 N20A (human, UniProt P20138 18-364)
human CD33 N20A, sequence (P20138 18-364 N20A limits assumed): as the sequence (P20138 18-364 A74S limits assumed) above, with N3A, S57A counted along it

human CD33 E85A = human CD33 E85A (human, UniProt P20138 18-364)

B1: Refmab #2 (antibody, V domains shown)
VH: QVQLVQSGAEVKKPGSSVKVSCKASGGTFSDYAISWVRQAPGQGLEWMGRIIPILGVADYAQKFQGRVTITADKSTRTAYMELSSLRSEDTAVYYCARNWADAFDIWGQGTMVTVSS
VL: DIQLTQSPSSLSASVGDRVTITCRASQGISSVLAWYQQKPGKAPKLLIYDASSLESGVPSRFSGSGSGTDFTLTISSLQPEDFATYYCQQFDSSITFGQGTKLEIK
notes: Full-length format is human IgG1 Fc silent (PG-LALA); The alanine scan used IgG or Fab
In the case of B1, the “Mean % WT Binding” value (human CD33 L78A) is reported as 108 % WT, the “Mean % WT Binding” value (human CD33 A74S) is reported as 91.7 % WT and the “Mean % WT Binding” value (human CD33 R62A) is reported as 124 % WT. The “Mean % WT Binding” value (human CD33 E81A) was 107 % WT, the “Mean % WT Binding” value (human CD33 R89A) was 98.7 % WT and the “Mean % WT Binding” value (human CD33 Q24A) was 103 % WT. The “Mean % WT Binding” value (human CD33 V29A) was 100 % WT, the “Mean % WT Binding” value (human CD33 E84A) was 114 % WT and the “Mean % WT Binding” value (human CD33 I66A) was 118 % WT. For the same binder, the “Mean % WT Binding” value (human CD33 F43A) was 10.6 % WT, the “Mean % WT Binding” value (human CD33 F90A) was 104 % WT and the “Mean % WT Binding” value (human CD33 T42A) was 112 % WT. For the same binder, the “Mean % WT Binding” value (human CD33 L35A) was 119 % WT, the “Mean % WT Binding” value (human CD33 T30A) was 92.1 % WT and the “Mean % WT Binding” value (human CD33 G88A) was 110 % WT. For the same binder, the “Mean % WT Binding” value (human CD33 Q80A) was 112 % WT, the “Mean % WT Binding” value (human CD33 Y49A) was 44.2 % WT and the “Mean % WT Binding” value (human CD33 V82A) was 116 % WT. The “Mean % WT Binding” value (human CD33 V25A) was 87.1 % WT, the “Mean % WT Binding” value (human CD33 I67A) was 122 % WT and the “Mean % WT Binding” value (human CD33 D18A) was 119 % WT. The “Mean % WT Binding” value (human CD33 K52A) was 94.9 % WT, the “Mean % WT Binding” value (human CD33 V73A) was 99.1 % WT and the “Mean % WT Binding” value (human CD33 V39A) was 111 % WT. For the same binder, the “Mean % WT Binding” value (human CD33 S68A) was 112 % WT, the “Mean % WT Binding” value (human CD33 T75A) was 114 % WT and the “Mean % WT Binding” value (human CD33 L38A) was 112 % WT. For the same binder, the “Mean % WT Binding” value (human CD33 F44A) was 1.2 % WT, the “Mean % WT Binding” value (human CD33 F61A) was 135 % WT and the “Mean % WT Binding” value (human CD33 K77A) was 123 % WT. The “Mean % WT Binding” value (human CD33 G64A) was 114 % WT, the “Mean % WT Binding” value (human CD33 P46A) was 104 % WT and the “Mean % WT Binding” value (human CD33 I47A) was 2.1 % WT. For the same binder, the “Mean % WT Binding” value (human CD33 T86A) was 113 % WT, the “Mean % WT Binding” value (human CD33 V56A) was 80.7 % WT and the “Mean % WT Binding” value (human CD33 R69A) was 138 % WT. The “Mean % WT Binding” value (human CD33 V31A) was 106 % WT, the “Mean % WT Binding” value (human CD33 G34A) was 105 % WT and the “Mean % WT Binding” value (human CD33 N53A) was 96 % WT. For the same binder, the “Mean % WT Binding” value (human CD33 V37A) was 118 % WT, the “Mean % WT Binding” value (human CD33 N20A) was 121 % WT and the “Mean % WT Binding” value (human CD33 E85A) was 114 % WT.
